One data set concerns UGDH T325D. The settings on record: UGDH T325D obligate dimer; cited from earlier work.
Data set [1] is described as follows: Thermofluor Stability Assay (thermal denaturation) of purified UGDH. In kind it is physicochemical, human. The settings on record: for Tm Apo: apo enzyme; for Tm Holo: holoenzyme complex (substrate and cofactor). From the text: We first generated the UGDH S316 point mutants in a bacterial construct that expressed the proteins with a six-histidine fusion to facilitate purification by nickel affinity chromatography as we have done previously. […] However, UGDH S316D yields were somewhat lower as a result of protein precipitation following purification. To compare the intrinsic stability of the S316 point mutants, we used a modified version of the Thermofluor Stability Assay, which we have used previously as a preliminary indicator of UGDH quaternary assembly. The UGDH WT and UGDH S316A enzymes had significant increases in melting temperature (Tm) upon addition of either substrate or cofactor and were stabilized by almost 20°C in the holoenzyme complex as expected.
Purified S316 mutants were compared to the UGDH WT enzyme using the following approaches as previously described. Enzymatic activity was evaluated by steady state kinetics in the presence and absence of the endogenous inhibitor UDP-Xylose to compare Michaelis constants and IC50 values. Intrinsic stability was assessed by thermal denaturation and quaternary structure was determined by size exclusion chromatography. Binding of UDP-Xylose to recombinant UGDH and mutants was measured by isothermal titration calorimetry using the MicroCal PEAQ-ITC (Malvern Panalytical). UGDH WT (50 μM in 0.1 M sodium phosphate buffer, pH 7.4) was placed in the cell, with UDP-Xyl (250 μM) in the syringe. Binding heats were corrected for the heat of dilution and analyzed using the MicroCal PEAQ-ITC Analysis Software, employing a single-site binding model to determine Kd values.
(DSF heats the sample and reads unfolding from a dye or from intrinsic fluorescence.)

B1: UGDH T325D: obligate dimeric UGDH mutant, T325 to aspartate (protein, UniProt O60701 1-494, looked up, variant T325D)
UDP-glucose 6-dehydrogenase: MFEIKKICCIGAGYVGGPTCSVIAHMCPEIRVTVVDVNESRINAWNSPTLPIYEPGLKEVVESCRGKNLFFSTNIDDAIKEADLVFISVNTPTKTYGMGKGRAADLKYIEACARRIVQNSNGYKIVTEKSTVPVRAAESIRRIFDANTKPNLNLQVLSNPEFLAEGTAIKDLKNPDRVLIGGDETPEGQRAVQALCAVYEHWVPREKILTTNTWSSELSKLAANAFLAQRISSINSISALCEATGADVEEVATAIGMDQRIGNKFLKASVGFGGSCFQKDVLNLVYLCEALNLPEVARYWQQVIDMNDYQRRRFASRIIDSLFNDVTDKKIAILGFAFKKDTGDTRESSSIYISKYLMDEGAHLHIYDPKVPREQIVVDLSHPGVSEDDQVSRLVTISKDPYEACDGAHAVVICTEWDMFKELDYERIHKKMLKPAFIFDGRRVLDGLHNELQTIGFQIETIGKKVSSKRIPYAPSGEIPKFSLQDPPNKKPKV
With B1, in the data set with UGDH T325D, the Vmax values was 65 to 75 nmol/min/mg.

B2: S316A: purified recombinant human UGDH, phosphodeficient serine 316 to alanine point mutant (protein)
chain: MFEIKKICCIGAGYVGGPTCSVIAHMCPEIRVTVVDVNESRINAWNSPTLPIYEPGLKEVVESCRGKNLFFSTNIDDAIKEADLVFISVNTPTKTYGMGKGRAADLKYIEACARRIVQNSNGYKIVTEKSTVPVRAAESIRRIFDANTKPNLNLQVLSNPEFLAEGTAIKDLKNPDRVLIGGDETPEGQRAVQALCAVYEHWVPREKILTTNTWSSELSKLAANAFLAQRISSINSISALCEATGADVEEVATAIGMDQRIGNKFLKASVGFGGSCFQKDVLNLVYLCEALNLPEVARYWQQVIDMNDYQRRRFAARIIDSLFNTVTDKKIAILGFAFKKDTGDTRESSSIYISKYLMDEGAHLHIYDPKVPREQIVVDLSHPGVSEDDQVSRLVTISKDPYEACDGAHAVVICTEWDMFKELDYERIHKKMLKPAFIFDGRRVLDGLHNELQTIGFQIETIGKKVSSKRIPYAPSGEIPKFSLQDPPNKKPKV
modifications: left off: His6, end not stated, state not stated
notes: purified recombinant human UGDH, phosphodeficient serine 316 to alanine point mutant
With B2, in data set [1], the “Tm Apo” value worked out at 49±0.2 °C and the “Tm Holo” value amounted to 66±3.0 °C.

B3: S316D: purified recombinant human UGDH, phosphomimetic serine 316 to aspartate point mutant (protein)
chain: MFEIKKICCIGAGYVGGPTCSVIAHMCPEIRVTVVDVNESRINAWNSPTLPIYEPGLKEVVESCRGKNLFFSTNIDDAIKEADLVFISVNTPTKTYGMGKGRAADLKYIEACARRIVQNSNGYKIVTEKSTVPVRAAESIRRIFDANTKPNLNLQVLSNPEFLAEGTAIKDLKNPDRVLIGGDETPEGQRAVQALCAVYEHWVPREKILTTNTWSSELSKLAANAFLAQRISSINSISALCEATGADVEEVATAIGMDQRIGNKFLKASVGFGGSCFQKDVLNLVYLCEALNLPEVARYWQQVIDMNDYQRRRFADRIIDSLFNTVTDKKIAILGFAFKKDTGDTRESSSIYISKYLMDEGAHLHIYDPKVPREQIVVDLSHPGVSEDDQVSRLVTISKDPYEACDGAHAVVICTEWDMFKELDYERIHKKMLKPAFIFDGRRVLDGLHNELQTIGFQIETIGKKVSSKRIPYAPSGEIPKFSLQDPPNKKPKV
modifications: left off: His6, end not stated, state not stated
notes: purified recombinant human UGDH, phosphomimetic serine 316 to aspartate point mutant
For the molecule B3, in data set [1], the “Tm Apo” value was determined as 47±1.0 °C and the “Tm Holo” value turned out to be 63±0.3 °C.

B4: WT: purified recombinant human wild-type UGDH (protein)
chain: MFEIKKICCIGAGYVGGPTCSVIAHMCPEIRVTVVDVNESRINAWNSPTLPIYEPGLKEVVESCRGKNLFFSTNIDDAIKEADLVFISVNTPTKTYGMGKGRAADLKYIEACARRIVQNSNGYKIVTEKSTVPVRAAESIRRIFDANTKPNLNLQVLSNPEFLAEGTAIKDLKNPDRVLIGGDETPEGQRAVQALCAVYEHWVPREKILTTNTWSSELSKLAANAFLAQRISSINSISALCEATGADVEEVATAIGMDQRIGNKFLKASVGFGGSCFQKDVLNLVYLCEALNLPEVARYWQQVIDMNDYQRRRFASRIIDSLFNTVTDKKIAILGFAFKKDTGDTRESSSIYISKYLMDEGAHLHIYDPKVPREQIVVDLSHPGVSEDDQVSRLVTISKDPYEACDGAHAVVICTEWDMFKELDYERIHKKMLKPAFIFDGRRVLDGLHNELQTIGFQIETIGKKVSSKRIPYAPSGEIPKFSLQDPPNKKPKV
modifications: left off: His6, end not stated, state not stated
notes: purified recombinant human wild-type UGDH
Regarding B4, in data set [1], the “Tm Apo” value worked out at 50±0.4 °C and the “Tm Holo” value was determined as 68±1.7 °C.

(Values after publication PMC13330650 (Matrix biology : journal of the International Society for …, 2025).)
